Data published in US8338155B2, “Modified mevalonate kinase with reduced feedback inhibition” (DSM IP Assets B.V., priority 2004, dated 2012).

Legend:
[1] = system: Saccharomyces cerevisiae mevalonate kinase; assay: Mevalonate kinase activity assay (NADH consumption, photometric at 340 nm): specific activity; format: biochemical; conditions: purified His6-tagged enzyme; WT = non-mutated His6-tagged mevalonate kinase
Excerpt: Methods for measuring specific activity are known to the person skilled in the art. The specific activity may for instance be determined via measuring the consumption of NADH. Suitable conditions for such measurement may be those as e.g. outlined in Example 1 except that, typically, saturating substrate concentrations are used or, in the case of enzyme inhibition at high substrate concentrations, at substrate concentrations that provide maximal activity under the particular experimental conditions.
(§1) For preparing mevalonate as substrate, 130 mg of DL-mevalonate lactone (FLUKA Chemie AG, Buchs, Switzerland) were dissolved in 5.5 ml of 0.2 M KOH and incubated for 15 min at 50° C. The solution was then adjusted to pH 7.0 by addition of 0.1 M HCl at room temperature (RT). Except if stated otherwise, the assay mixture consisted of 100 mM K2BPO/KH2PO4 (pH 7.0), 1 mM ATP, 2 mM MgCl2, 1 mM mevalonate, 0.5 mM phosphoenolpyruvate (PEP), 0.32 mM NADH, 20 U/ml pyruvate kinase and 27 U/ml lactate dehydrogenase (Sigma-Aldrich, St. Louis, Mo., USA). Inhibition was tested by adding 1 μM FPP.
(§2) Purification of His6-tagged mevalonate kinase and of His6-tagged mevalonate kinase mutant enzymes was done with Ni-NTA chromatography using the QIAexpress system/reagents of Qiagen. Upon addition of purified (His6-tagged) mevalonate kinase, enzymatic reaction reflected by consumption of NADH was followed by photometric measurement at 340 nm. One unit (1 U) of mevalonate kinase activity catalyzes the phosphorylation of 1 μmol of mevalonate per min.
(§3) Preparation of Mevalonate and Activity Measurement was Exactly Performed as Described in Example 1. 1 μM FPP was used for inhibition assays performed with the Saccharomyces cerevisiae mevalonate kinase wild-type enzyme and its mutants.

[2] = system: Paracoccus zeaxanthinifaciens strain R114; assay: Coenzyme Q10 production in fed-batch cultivation of recombinant strains; format: cell-based; conditions: 70 h, strain R114 with plasmid pBBR-K-mev-op-(S. cerevisiae mvk-N66K/I152M)-PcrtE-ddsAwt vs pBBR-K-mev-op-(S. cerevisiae mvk)-PcrtE-ddsAwt
Excerpt: To test the in vivo effect of mutation N66K/I152M on the production of coenzyme Q10, the DNA encoding S. cerevisiae mevalonate kinase mutant N66K/1152M (SEQ ID NO:5) is introduced into Paracoccus zeaxanthinifaciens and compared to the CoQ10 production in P. zeaxanthinifaciens carrying the DNA encoding the wild-type S. cerevisiae mevalonate kinase (SEQ ID NO:2).
Plasmids according to pBBR-K-mev-op-R114-PcrtE-ddsAwt, are constructed wherein the mevalonate operon, including its promoter region, from P. zeaxanthinifaciens R114 (see above) is replaced by either the DNA encoding the wild-type S. cerevisiae mevalonate kinase (SEQ ID NO:2) resulting in pBBR-K-mev-op-(S. cerevisiae mvk)-PcrtE-ddsAwt or the DNA encoding S. cerevisiae mevalonate kinase mutant N66K/1152M (SEQ ID NO:5) resulting in pBBR-K-mev-op-(S. cerevisiae mvk-N66K/I152M)-PcrtE-ddsAwt. […]
Coenzyme Q10 production is tested in fed-batch cultivations of P. zeaxanthinifaciens strains R114/pBBR-K-mev-opR114-PcrtE-ddsAwt, R114/pBBR-K-mev-op-(S. cerevisiae mvk)-PcrtE-ddsAwt and R114/pBBR-K-mev-op-(S. cerevisiae mvk-N66K/1152M)-PcrtE-ddsAwt. […] The precultures are incubated at 28° C. with shaking at 250 rpm for 28 h, after which time the optical density at 660 nm (OD660) is between 14 and 22 absorbance units, depending on the strain used. […]

[3] = system: Saccharomyces cerevisiae mevalonate kinase; assay: Inhibition of mevalonate kinase activity by the feedback inhibitor FPP: feedback resistance; format: biochemical; conditions: 1 μM FPP; % resistance=100·((d/c)−(b/a))/(1−(b/a)) relative to wild-type
Method: “Feedback resistance” as used herein may be any increase in resistance to “feedback inhibition” (as defined above). Feedback resistance can be analyzed in different ways known to those skilled in the art. An appropriate example of such an analysis is shortly described herein: mevalonate kinase activity is measured in an activity assay at non-saturating concentrations of for instance ATP (or of another phosphate donor) and mevalonate (or mevalonate analogue), i.e., at for instance ATP (or phosphate donor) and mevalonate (or mevalonate analogue) concentrations around which the reaction rate is sensitive to changes of these substrate concentrations, e.g., at concentrations around the respective Km values of the enzyme under investigation for these substrates. The activities of both wild-type mevalonate kinase and of a variant/mutant of this enzyme are measured under otherwise identical conditions both in the absence and presence of a relevant concentration of a feedback inhibitor, i.e., at a concentration of feedback inhibitor affording significant inhibition of the wild-type mevalonate kinase. If the extent of inhibition (e.g., % inhibition) by the feedback inhibitor is lower for the mutant than for the wild-type enzyme, then the mutant is feedback resistant in the context of the present patent application. Once a feedback resistant variant/mutant has been identified, the same procedure as described above may be applied to identify further improved mutants, i.e., mutants that are even more feedback resistant. Feedback resistance (%) is calculated as follows: if (a) and (b) are the measured mevalonate kinase activities of the wild-type enzyme in the absence and presence, respectively, of the feedback inhibitor (e.g., FPP), and if (c) and (d) are the measured mevalonate kinase activities of the mutant enzyme in the absence and presence, respectively, of the same feedback inhibitor, then % feedback resistance is: % resistance=100·((d/c)−(b/a))/(1−(b/a))
as §1, §2, §3
Feedback resistance (%) was calculated according to the following formula: % resistance=100·((d/c)−(b/a))/(1−(b/a)) wherein (a) and (b) refer to the measured mevalonate kinase activities of the wild-type enzyme in the absence and presence, respectively, and (c) and (d) refer to the measured mevalonate kinase activities of the mutant enzyme in the absence and presence, respectively, of FPP. The results are shown in Tab. 1, wherein WT represents the non-mutated mevalonate kinase containing a His6-tag (SEQ ID NO:3).

B1: N66K, I152M: Saccharomyces cerevisiae mevalonate kinase mutant with substitutions N66K and I152M (encoding DNA SEQ ID NO:5) (protein, listed as Saccharomyces cerevisiae)
chain: MSLPFLTSAPGKVIIFGEHSAVYNKPAVAASVSALRTYLLISESSAPDTIELDFPDISFNHKWSIKDFNAITEDQVNSQKLAKAQQATDGLSQELVSLLDPLLAQLSESFHYHAAFCFLYMFVCLCPHAKNIKFSLKSTLPIGAGLGSSASMSVSLALAMAYLGGLIGSNDLEKLSENDKHIVNQWAFIGEKCIHGTPSGIDNAVATYGNALLFEKDSHNGTINTNNFKFLDDFPAIPMILTYTRIPRSTKDLVARVRVLVTEKFPEVMKPILDAMGECALQGLEIMTKLSKCKGTDDEAVETNNELYEQLLELIRINHGLLVSIGVSHPGLELIKNLSDDLRIGSTKLTGAGGGGCSLTLLRRDITQEQIDSFKKKLQDDFSYETFETDLGGTGCCLLSAKNLNKDLKIKSLVFQLFENKTTTKQQIDDLLLPGNTNLPWTS
[1]
  Specific activity (% of wild-type): 148 % of wild-type
[2]
  final concentration of coenzyme Q10 produced, higher than strain carrying wild-type S. cerevisiae mvk: at least 5%
[3]
  Feedback resistance (%): 67%
